Reference: paper PMC3618327, “Genetic and Biochemical Characterization of the MinC-FtsZ Interaction in Bacillus subtilis” (PLoS ONE, 2013)
Residue numbers refer to the chain shown, from its start. Names and notes keep the numbering of the source.

T1: MinC-His6, wild-type Bacillus subtilis MinC (B. subtilis, UniProt Q01463 1-226)
T1 sequence (looked up): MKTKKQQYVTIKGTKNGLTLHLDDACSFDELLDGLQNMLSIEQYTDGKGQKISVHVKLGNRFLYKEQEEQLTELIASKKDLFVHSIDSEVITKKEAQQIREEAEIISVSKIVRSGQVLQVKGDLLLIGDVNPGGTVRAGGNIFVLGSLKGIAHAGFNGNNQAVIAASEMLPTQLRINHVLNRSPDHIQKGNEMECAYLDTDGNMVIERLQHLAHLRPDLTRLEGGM

B1: MinC Y44W (tryptophan mutant of Bacillus subtilis MinC) (natural protein, B. subtilis, UniProt Q01463 1-226, looked up)
chain: T1 sequence (looked up) with Y44W
notes: MinC of Bacillus subtilis with tryptophan at position 44 of the N-terminal domain; The methods name both His6-MinC (pET28a) and MinC-His6 (pET24b); also called tryptophan mutant MinC Y44W
B2: His6-FtsZ R376T (natural protein, B. subtilis, UniProt P17865 1-382, looked up)
chain: MLEFETNIDGLASIKVIGVGGGGNNAVNRMIENEVQGVEYIAVNTDAQALNLSKAEVKMQIGAKLTRGLGAGANPEVGKKAAEESKEQIEEALKGADMVFVTAGMGGGTGTGAAPVIAQIAKDLGALTVGVVTRPFTFEGRKRQLQAAGGISAMKEAVDTLIVIPNDRILEIVDKNTPMLEAFREADNVLRQGVQGISDLIATPGLINLDFADVKTIMSNKGSALMGIGIATGENRAAEAAKKAISSPLLEAAIDGAQGVLMNITGGTNLSLYEVQEAADIVASASDQDVNMIFGSVINENLKDEIVVTVIATGFIEQEKDVTKPQRPSLNQSIKTHNQSVPKREPKREEPQQQNTVSRHTSQPADDTLDIPTFLTNRNKRG
notes: FtsZ of Bacillus subtilis, mutant in the C-terminal peptide (CTP); source: E. coli BL21(DE3)-RIL, purified (two-step ammonium sulfate and GTP+Ca2+ precipitation); not shown: His6, N-terminal, kept
B3: His6-FtsZ K243R (natural protein, B. subtilis, UniProt P17865 1-382, looked up)
chain: B2 chain with K243R, T376R
notes: FtsZ of Bacillus subtilis, mutant from the error-prone PCR library; source: E. coli BL21(DE3)-RIL, purified (two-step ammonium sulfate and GTP+Ca2+ precipitation); not shown: His6, N-terminal, kept
B4: His6-FtsZ D287V (natural protein, B. subtilis, UniProt P17865 1-382, looked up)
chain: B2 chain with D287V, T376R
notes: as for B3
B5: His6-FtsZ T111A (natural protein, B. subtilis, UniProt P17865 1-382, looked up)
chain: B2 chain with T111A, T376R
notes: FtsZ of Bacillus subtilis, promiscuous mutant in the N-terminal subdomain; source: E. coli BL21(DE3)-RIL, purified (two-step ammonium sulfate and GTP+Ca2+ precipitation); not shown: His6, N-terminal, kept
B6: His6-FtsZ, wild-type Bacillus subtilis FtsZ (natural protein, B. subtilis, UniProt P17865 1-382, looked up)
chain: B2 chain with T376R
notes: FtsZ of Bacillus subtilis, the ftsZ gene cloned into pET28a; also called WT; FtsZ^WT; source: E. coli BL21(DE3)-RIL, purified (two-step ammonium sulfate and GTP+Ca2+ precipitation); not shown: His6, N-terminal, kept

Key:
[1] = target: B6; test: other fluorescence titration; intrinsic Trp fluorescence of 1 µM MinC Y44W with 0.5-3 µM FtsZ in solution; Tris/HCl 20 mM, KCl 100 mM, EDTA 5 mM, pH 7.5; excitation 295 nm, emission 320-360 nm; the interaction was inhibited by salt (1 M KCl); settings: both partners purified
[2] = target: the molecule itself; test: sedimentation of polymers; 7 µM FtsZ in Mes/NaOH 50 mM, MgCl2 10 mM, KCl 133 mM, DEAE-dextran 0.6 mg/mL, pH 6.5, GTP 2 mM, room temperature, 100.000 rpm 15 min; pellet and supernatant on SDS-PAGE
[3] = target: T1, MinC-His6, wild-type Bacillus subtilis …; test: cell-based or functional assay

Kd [1] [nM]	light scattering signal of FtsZ polymerization with MinC (7 µM FtsZ, 20 µM MinC) relative to the signal in the absence of MinC [3] [%]	Binder	binding result [2]
~1000		B1	
	70	B2	binds
		B3	binds
		B4	binds
		B5	binds
		B6	binds
